In test [1] the target is activated coagulation factor XII (FXIIa). The test can be described thus: chromogenic enzyme inhibition assay; 1 nM FXIIa, 500 μM S2302, 37 °C, 110 mM Tris-HCl pH 8.0, 250 mM NaCl, 1% BSA; residual activity in triplicate at at least six inhibitor concentrations; Ki from a linear fit of 1/v against inhibitor concentration.
Test [2] deals with bovine pancreatic trypsin (bovine). The test can be described thus: chromogenic enzyme inhibition assay; 1 nM trypsin, 500 μM S2765, 37 °C, 110 mM Tris-HCl pH 8.0, 250 mM NaCl, 1% BSA; residual activity in triplicate at at least six inhibitor concentrations; Ki from a linear fit of 1/v against inhibitor concentration.
Sequence of bovine pancreatic trypsin (bovine) (P00760 24-246): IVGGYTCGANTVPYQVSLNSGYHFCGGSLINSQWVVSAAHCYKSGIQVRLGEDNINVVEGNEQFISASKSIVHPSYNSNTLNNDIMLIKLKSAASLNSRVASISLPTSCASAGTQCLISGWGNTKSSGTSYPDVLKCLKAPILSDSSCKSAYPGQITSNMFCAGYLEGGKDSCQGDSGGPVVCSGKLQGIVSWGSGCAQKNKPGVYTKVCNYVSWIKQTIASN

A word on the Ki: it is a dissociation constant, usually derived from enzyme kinetics or from competition with a known ligand. A low value points to tighter binding.

B1: CHFI-2345 (domain or fragment)
chain: IPHNPLPSCRWYVTSRTCGIGPRLPWPELKRRCCRELADIPAYDRCTALSILMDGAIPPGPDAQLEGRLEDLPGCPREVQRGFAATLVTEAECNLATISGVAECPWILGGGTMPSK
Turning to B1, the Ki in test [1] stood at 1 nM; in test [2], 2.9 nM.

B2: corn Hageman factor inhibitor (CHFI), control protein from Zea mays seeds (natural protein)
chain: SAGTSCVPGWAIPHNPLPSCRWYVTSRTCGIGPRLPWPELKRRCCRELADIPAYCRCTALSILMDGAIPPGPDAQLEGRLEDLPGCPREVQRGFAATLVTEAECNLATIS
Turning to B2, the values for the inhibitory constant (Ki) in test [1] and in test [2] were 1 nM and 2.1 nM, respectively.

B3: CHFI-1245, full-size CHFI with Cys29 substituted by Asp (natural protein)
chain: SAGTSCVPGWAIPHNPLPSCRWYVTSRTDGIGPRLPWPELKRRCCRELADIPAYCRCTALSILMDGAIPPGPDAQLEGRLEDLPGCPREVQRGFAATLVTEAECNLATIS
As for B3, the inhibition constant (Ki) in test [1] came to 50 nM; in test [2] it was 250 nM.

B4: CHFI-12345, recombinant full-size CHFI without any truncations (natural protein)
chain: SAGTSCVPGWAIPHNPLPSCRWYVTSRTCGIGPRLPWPELKRRCCRELADIPAYCRCTALSILMDGAIPPGPDAQLEGRLEDLPGCPREVQRGFAATLVTEAECNLATIS
Consider B4, for which the values for the inhibitory constant (Ki) in test [1] and in test [2] were 1.1 nM and 1.3 nM, respectively.

For the origin of these results see paper PMC4022879.
